# Test results as given in PMC10441386 (bioRxiv, 2023).
# Non-standard residues stand in square brackets, D forms with d. No end group written: not given here. Trp(5-OH) = N[C@@H](Cc1c[nH]c2ccc(O)cc12)C(=O)O; Phe(4-NH2) = Nc1ccc(C[C@H](N)C(=O)O)cc1
# B1: CN2097 (peptide)
# chain 1: RRRRRRRC
# chain 2: CKNYKKTEV
# B2: Syn3* (peptide)
# peptide: CGSFPPWVKKTEV
# modifications: not fully specified
# B3: D-Syn3 (peptide)
# chain 1: RRRRRRRC
# chain 2: CGSFPPWVQKTEV
# modifications: cysteine pairing not given here; also: D- prefix in name, meaning not given here
# B4: aC binder peptide (peptide)
# peptide: GSFPPWVQ
# B5: SYNGAP peptide F4-NH2F (peptide)
# peptide: RRRRRRGS[Phe(4-NH2)]PPWVQQTRV
# B6: SYNGAP peptide W7-OHW (peptide)
# peptide: RRRRRRGSFPP[Trp(5-OH)]VQQTRV
# B7: SYNGAP peptide D-Ser3 (peptide)
# peptide: RRRRRRG[dS]FPPWVQQTRV
# B8: SYNGAP peptide D-Pro4 (peptide)
# peptide: RRRRRRGSF[dP]PWVQQTRV
# B9: SYNGAP peptide D-Pro5 (peptide)
# peptide: RRRRRRGSFP[dP]WVQQTRV
# B10: SYNGAP peptide D-Val8 (peptide)
# peptide: RRRRRRGSFPPW[dV]QQTRV
# B11: SYNGAP peptide D-Gln9 (peptide)
# peptide: RRRRRRGSFPPWV[dQ]QTRV
# Target: T1, PSD-95 PDZ3cα (residues R309-S422) (Homo sapiens, UniProt P78352)
# T1 sequence (P78352 309-422): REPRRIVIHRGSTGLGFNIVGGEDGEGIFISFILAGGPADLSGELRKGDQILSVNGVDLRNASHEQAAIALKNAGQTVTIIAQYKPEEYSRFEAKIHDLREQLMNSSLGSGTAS
# Assay: SPR
# Conditions: not given
Molecule,koff,kon
SYNGAP peptide V8L,0.00381 s⁻¹,–
SYNGAP peptide F4H,0.0261 s⁻¹,216000 M⁻¹ s⁻¹
SYNGAP peptide V8I,0.00294 s⁻¹,–

# Target: PSD-95 PDZ3cα protein (residues R309-S422) (UniProt P78352 309-422)
# Sequence (P78352 309-422): as above
# Assay: SPR
# Conditions: not given
Molecule,koff,kon
B1,0.00109 s⁻¹,6000 M⁻¹ s⁻¹
B2,0.0287 s⁻¹,439000 M⁻¹ s⁻¹
B3,0.0125 s⁻¹,458000 M⁻¹ s⁻¹
B4,0.00592 s⁻¹,1000 M⁻¹ s⁻¹
B5,0.0104 s⁻¹,153000 M⁻¹ s⁻¹
B6,0.0106 s⁻¹,24000 M⁻¹ s⁻¹
B7,0.00493 s⁻¹,633000 M⁻¹ s⁻¹
B8,0.0116 s⁻¹,1.88e+06 M⁻¹ s⁻¹
B9,0.0444 s⁻¹,1.83e+06 M⁻¹ s⁻¹
B10,0.0459 s⁻¹,2.19e+06 M⁻¹ s⁻¹
B11,0.0182 s⁻¹,317000 M⁻¹ s⁻¹

# Target: T1, PSD-95 PDZ3cα (residues R309-S422)
# Assay: SPR binding of peptides to immobilized PDZ3cα
# Conditions: not given
row,Molecule,Kd
1,RRRRRRGSFPPWLQQTRV [V8L],58.4 nM
2,CC(C)[C@H](NC(=O)[C@H](CCCNC(=N)N)NC(=O)[C@@H](NC(=O)[C@H](CCC(N)=O)NC(=O)[C@H](CCC(N)=O)NC(=O)[C@@H](NC(=O)[C@H](Cc1c[nH]c2ccccc12)NC(=O)[C@H]1CCCN1C(=O)[C@@H]1CCCN1C(=O)[C@H](Cc1ccccc1)NC(=O)[C@H](CO)NC(=O)CNC(=O)[C@H](CCCNC(=N)N)NC(=O)[C@H](CCCNC(=N)N)NC(=O)[C@H](CCCNC(=N)N)NC(=O)[C@H](CCCNC(=N)N)NC(=O)[C@H](CCCNC(=N)N)NC(=O)[C@@H](N)CCCNC(=N)N)C(C)C)[C@@H](C)O)C(=O)O [D-Pro5],24.3 nM
3,CC(C)[C@H](NC(=O)[C@H](CCCNC(=N)N)NC(=O)[C@@H](NC(=O)[C@H](CCC(N)=O)NC(=O)[C@H](CCC(N)=O)NC(=O)[C@@H](NC(=O)[C@H](Cc1c[nH]c2ccccc12)NC(=O)[C@@H]1CCCN1C(=O)[C@H]1CCCN1C(=O)[C@H](Cc1ccccc1)NC(=O)[C@H](CO)NC(=O)CNC(=O)[C@H](CCCNC(=N)N)NC(=O)[C@H](CCCNC(=N)N)NC(=O)[C@H](CCCNC(=N)N)NC(=O)[C@H](CCCNC(=N)N)NC(=O)[C@H](CCCNC(=N)N)NC(=O)[C@@H](N)CCCNC(=N)N)C(C)C)[C@@H](C)O)C(=O)O [D-Pro4],6.1 nM
4,"GSFPPWVQ [aC binder, reference compound]",11100 nM
5,RRRRRRGSHPPWVQQTRV [F4H],121 nM
6,CC(C)[C@H](NC(=O)[C@H](CCCNC(=N)N)NC(=O)[C@@H](NC(=O)[C@H](CCC(N)=O)NC(=O)[C@H](CCC(N)=O)NC(=O)[C@@H](NC(=O)[C@H](Cc1c[nH]c2ccccc12)NC(=O)[C@@H]1CCCN1C(=O)[C@@H]1CCCN1C(=O)[C@H](Cc1ccccc1)NC(=O)[C@@H](CO)NC(=O)CNC(=O)[C@H](CCCNC(=N)N)NC(=O)[C@H](CCCNC(=N)N)NC(=O)[C@H](CCCNC(=N)N)NC(=O)[C@H](CCCNC(=N)N)NC(=O)[C@H](CCCNC(=N)N)NC(=O)[C@@H](N)CCCNC(=N)N)C(C)C)[C@@H](C)O)C(=O)O [D-Ser3],7.8 nM
7,RRRRRRGSFPPWIQQTRV [V8I],101 nM
8,CC(C)[C@H](NC(=O)[C@H](CCCNC(=N)N)NC(=O)[C@@H](NC(=O)[C@H](CCC(N)=O)NC(=O)[C@H](CCC(N)=O)NC(=O)[C@H](NC(=O)[C@H](Cc1c[nH]c2ccccc12)NC(=O)[C@@H]1CCCN1C(=O)[C@@H]1CCCN1C(=O)[C@H](Cc1ccccc1)NC(=O)[C@H](CO)NC(=O)CNC(=O)[C@H](CCCNC(=N)N)NC(=O)[C@H](CCCNC(=N)N)NC(=O)[C@H](CCCNC(=N)N)NC(=O)[C@H](CCCNC(=N)N)NC(=O)[C@H](CCCNC(=N)N)NC(=O)[C@@H](N)CCCNC(=N)N)C(C)C)[C@@H](C)O)C(=O)O [D-Val8],20.9 nM
9,CC(C)[C@H](NC(=O)[C@H](CCCNC(=N)N)NC(=O)[C@@H](NC(=O)[C@H](CCC(N)=O)NC(=O)[C@@H](CCC(N)=O)NC(=O)[C@@H](NC(=O)[C@H](Cc1c[nH]c2ccccc12)NC(=O)[C@@H]1CCCN1C(=O)[C@@H]1CCCN1C(=O)[C@H](Cc1ccccc1)NC(=O)[C@H](CO)NC(=O)CNC(=O)[C@H](CCCNC(=N)N)NC(=O)[C@H](CCCNC(=N)N)NC(=O)[C@H](CCCNC(=N)N)NC(=O)[C@H](CCCNC(=N)N)NC(=O)[C@H](CCCNC(=N)N)NC(=O)[C@@H](N)CCCNC(=N)N)C(C)C)[C@@H](C)O)C(=O)O [D-Gln9],57.3 nM

# Tested on: AS mouse model
# Assay: AS mouse model / animal studies
# Format: in vivo
# Conditions: data to be reported elsewhere
row,Molecule,effect in AS mouse model / animal studies
1,CC(C)[C@H](NC(=O)[C@H](CCCNC(=N)N)NC(=O)[C@@H](NC(=O)[C@H](CCC(N)=O)NC(=O)[C@H](CCC(N)=O)NC(=O)[C@@H](NC(=O)[C@H](Cc1c[nH]c2ccccc12)NC(=O)[C@@H]1CCCN1C(=O)[C@@H]1CCCN1C(=O)[C@H](Cc1ccccc1)NC(=O)[C@H](CO)NC(=O)CNC(=O)[C@H](CS)NC(=O)[C@H](CS)NC(=O)[C@H](CCCNC(=N)N)NC(=O)[C@H](CCCNC(=N)N)NC(=O)[C@H](CCCNC(=N)N)NC(=O)[C@H](CCCNC(=N)N)NC(=O)[C@H](CCCNC(=N)N)NC(=O)[C@H](CCCNC(=N)N)NC(=O)[C@@H](N)CCCNC(=N)N)C(C)C)[C@@H](C)O)C(=O)O [SYNGAP],did not have the same beneficial effects as Syn3
